Results published in CN114106180A (CHINESE PHARMACOLOGY UNIV, dated 2022).

Target: T1, 重组人CD24蛋白 (human, UniProt P25063 27-59, limits assumed)
T1 construct: also called 重组人CD24抗原
T1 chain (looked up): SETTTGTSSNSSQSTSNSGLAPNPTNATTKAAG
Experiment: indirect ELISA, recombinant human CD24 coated at 0.5 ug/mL, antibody 0.08-2.5 nM, goat anti-human IgG detection

B1: CD24单克隆抗体cG7 (antibody, human IgG1, V domains shown)
VH: QVKLEESGGGLVQPGGSLKISCAASGFDFSRYWMSWVRQAPGKGLEWIGEINPDSSTINYTPSLRDKFIISRDNAKNTLYLQMSKVRYEDTSLYYCARQGDYWGQGTSVTVSS
VL: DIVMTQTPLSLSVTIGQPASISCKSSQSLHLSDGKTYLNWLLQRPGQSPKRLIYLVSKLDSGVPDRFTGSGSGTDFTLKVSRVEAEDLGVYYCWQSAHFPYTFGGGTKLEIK
notes: also called 亲本CD24单克隆抗体cG7; CD24嵌合抗体
  EC50: 152 pM

B2: 带有工程化半胱氨酸的CD24单克隆抗体cG7SV (antibody, V domains shown)
VH: B1 VH
VL: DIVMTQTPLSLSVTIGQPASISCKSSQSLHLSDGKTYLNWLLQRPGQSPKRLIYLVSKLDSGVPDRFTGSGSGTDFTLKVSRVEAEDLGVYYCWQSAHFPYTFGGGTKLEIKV
notes: also called 带有工程化半胱氨酸的CD24嵌合抗体
  EC50: 153 pM
